How the values were obtained:
[1] = target: Serotransferrin precursor (human) (UniProt P02787); assay: BiP-Sepharose pull-down, RA synovial fluid sample 5B, 1 M NaCl eluate, MS; may be indirect
[2] = target: 25 kDa protein/immunoglobulin lambda chain/rheumatoid factor G9 light chain (lambda V3)/IGLC1 protein (human) (UniProt P0CG04); assay: BiP-Sepharose pull-down, AL amyloidosis patient II plasma (B3), MS of urea eluate; may be indirect
[3] = target: Apolipoprotein E precursor/Apolipoprotein E/Apolipoprotein E3 (Fragment) (human) (UniProt P02649); assay: as above
Sequence of Apolipoprotein E precursor/Apolipoprotein E/Apolipoprotein E3 (Fragment) (human) (P02649 19-317 limits assumed): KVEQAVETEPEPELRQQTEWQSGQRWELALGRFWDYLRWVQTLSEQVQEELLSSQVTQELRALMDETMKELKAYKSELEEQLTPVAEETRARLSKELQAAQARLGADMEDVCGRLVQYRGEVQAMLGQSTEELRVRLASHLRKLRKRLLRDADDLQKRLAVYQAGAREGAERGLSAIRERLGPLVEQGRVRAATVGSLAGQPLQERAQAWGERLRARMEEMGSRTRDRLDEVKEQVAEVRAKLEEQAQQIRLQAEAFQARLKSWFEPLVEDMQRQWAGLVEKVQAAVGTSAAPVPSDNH

[4] = target: Complement factor H-related protein 3 precursor (human) (UniProt Q02985); assay: as above
Sequence of Complement factor H-related protein 3 precursor (human) (Q02985 19-330 limits assumed): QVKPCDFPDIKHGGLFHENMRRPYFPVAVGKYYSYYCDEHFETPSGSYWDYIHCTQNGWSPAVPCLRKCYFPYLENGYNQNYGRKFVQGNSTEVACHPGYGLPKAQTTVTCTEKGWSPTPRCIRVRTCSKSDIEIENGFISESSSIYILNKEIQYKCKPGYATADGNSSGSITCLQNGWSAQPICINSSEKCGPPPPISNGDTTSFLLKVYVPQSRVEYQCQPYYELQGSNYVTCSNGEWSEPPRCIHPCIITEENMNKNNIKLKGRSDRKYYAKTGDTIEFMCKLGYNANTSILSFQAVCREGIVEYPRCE

[5] = target: Dynein heavy chain domain 3/KIAA1503 protein (Fragment) (human) (UniProt Q9P225); assay: as above
[6] = target: Hypothetical protein/Ig kappa chain V-II region RPMI 6410 precursor (human) (UniProt P06310); assay: as above
Sequence of Hypothetical protein/Ig kappa chain V-II region RPMI 6410 precursor (human) (P06310 21-120): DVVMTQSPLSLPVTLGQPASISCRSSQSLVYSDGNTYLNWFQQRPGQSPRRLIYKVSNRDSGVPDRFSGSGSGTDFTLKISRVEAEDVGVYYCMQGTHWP

[7] = target: IGLC1 protein (immunoglobulin lambda C1)/immunoglobulin lambda chain/immunoglobulin C1 segment protein (fragment) (human) (UniProt P0CG04); assay: as above
Sequence of IGLC1 protein (immunoglobulin lambda C1)/immunoglobulin lambda chain/immunoglobulin C1 segment protein (fragment) (human) (P0CG04 whole entry, the tested form may be a part): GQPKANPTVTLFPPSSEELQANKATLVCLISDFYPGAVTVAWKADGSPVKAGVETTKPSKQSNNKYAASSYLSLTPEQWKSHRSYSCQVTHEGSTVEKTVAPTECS

[8] = target: Immunoglobulin heavy constant gamma 3 (G3m marker)/Ig gamma-3 chain C region (human) (UniProt P01860); assay: as above
Sequence of Immunoglobulin heavy constant gamma 3 (G3m marker)/Ig gamma-3 chain C region (human) (P01860 other isoform, or with tags, fused parts or gaps limits assumed): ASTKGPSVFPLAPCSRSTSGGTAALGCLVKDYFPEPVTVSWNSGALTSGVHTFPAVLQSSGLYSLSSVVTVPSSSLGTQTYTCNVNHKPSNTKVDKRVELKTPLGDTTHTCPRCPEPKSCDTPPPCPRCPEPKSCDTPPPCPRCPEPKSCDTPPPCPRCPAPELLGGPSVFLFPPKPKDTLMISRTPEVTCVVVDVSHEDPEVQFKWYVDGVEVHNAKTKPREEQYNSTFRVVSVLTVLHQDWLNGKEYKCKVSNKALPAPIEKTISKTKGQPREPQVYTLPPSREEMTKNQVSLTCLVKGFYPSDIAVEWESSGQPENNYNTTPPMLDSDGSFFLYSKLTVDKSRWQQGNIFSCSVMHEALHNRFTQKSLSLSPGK

[9] = target: Isoform 1 of Plectin-1 (human) (UniProt Q15149); assay: as above
[10] = target: V1-3 protein (Fragment)/immunoglobulin lambda variable 2-11 (human) (UniProt P01706); assay: as above
Sequence of V1-3 protein (Fragment)/immunoglobulin lambda variable 2-11 (human) (P01706 20-119 limits assumed): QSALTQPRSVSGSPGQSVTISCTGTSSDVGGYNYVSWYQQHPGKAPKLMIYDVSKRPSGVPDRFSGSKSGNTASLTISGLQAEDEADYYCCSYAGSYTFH

[11] = target: Hypothetical protein/Heat shock 70 kDa protein 5 (glucose-regulated protein, 78 kDa = GRP78 = BiP = HSPA5), as identified in eluates (human) (UniProt P11021); assay: BiP-Sepharose pull-down, RA patient IV synovial fluid (B6), MS of urea eluate; BiP may stem from the column
Sequence of Hypothetical protein/Heat shock 70 kDa protein 5 (glucose-regulated protein, 78 kDa = GRP78 = BiP = HSPA5), as identified in eluates (human) (P11021 19-654 limits assumed): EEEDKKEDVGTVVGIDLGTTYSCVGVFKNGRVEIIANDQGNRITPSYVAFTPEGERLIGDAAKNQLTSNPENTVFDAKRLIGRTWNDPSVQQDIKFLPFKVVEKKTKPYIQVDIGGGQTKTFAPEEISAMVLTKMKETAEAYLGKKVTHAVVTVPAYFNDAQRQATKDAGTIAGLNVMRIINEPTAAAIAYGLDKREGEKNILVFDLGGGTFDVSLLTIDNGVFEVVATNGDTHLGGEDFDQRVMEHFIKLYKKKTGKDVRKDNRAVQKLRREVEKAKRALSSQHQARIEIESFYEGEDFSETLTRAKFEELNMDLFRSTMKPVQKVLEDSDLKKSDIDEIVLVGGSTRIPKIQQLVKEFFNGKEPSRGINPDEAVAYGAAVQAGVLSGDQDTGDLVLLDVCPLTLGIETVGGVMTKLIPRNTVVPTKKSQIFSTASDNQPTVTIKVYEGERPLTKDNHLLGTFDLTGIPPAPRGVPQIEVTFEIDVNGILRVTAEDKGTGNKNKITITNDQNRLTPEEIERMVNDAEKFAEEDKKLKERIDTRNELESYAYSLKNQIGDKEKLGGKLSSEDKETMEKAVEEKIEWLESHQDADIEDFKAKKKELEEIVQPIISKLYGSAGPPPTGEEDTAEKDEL

Sequence of Serotransferrin precursor (human) (P02787 20-698 limits assumed): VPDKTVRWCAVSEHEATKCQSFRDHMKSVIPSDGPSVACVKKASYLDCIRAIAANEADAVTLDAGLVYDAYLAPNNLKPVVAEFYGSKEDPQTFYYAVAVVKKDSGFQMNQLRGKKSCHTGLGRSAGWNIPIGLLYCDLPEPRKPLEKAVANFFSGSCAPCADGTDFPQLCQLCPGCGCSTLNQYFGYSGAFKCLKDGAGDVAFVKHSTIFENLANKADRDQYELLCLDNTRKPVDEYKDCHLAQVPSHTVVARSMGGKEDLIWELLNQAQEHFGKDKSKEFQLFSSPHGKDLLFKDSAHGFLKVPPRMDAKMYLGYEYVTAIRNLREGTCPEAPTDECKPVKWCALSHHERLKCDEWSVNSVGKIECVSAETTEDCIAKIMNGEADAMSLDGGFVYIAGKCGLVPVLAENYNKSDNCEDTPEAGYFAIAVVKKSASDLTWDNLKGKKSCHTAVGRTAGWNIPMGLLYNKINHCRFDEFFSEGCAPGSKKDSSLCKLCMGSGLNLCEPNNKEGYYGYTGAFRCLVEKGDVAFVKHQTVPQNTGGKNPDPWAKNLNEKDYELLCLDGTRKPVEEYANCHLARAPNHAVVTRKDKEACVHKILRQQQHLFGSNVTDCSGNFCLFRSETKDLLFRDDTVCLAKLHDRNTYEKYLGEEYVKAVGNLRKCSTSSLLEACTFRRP

recombinant human BiP with C-terminal linker, FLAG-tag and His-tag (BiP-FLAG-His) (from UniProt P11021 19-654)
# of unique peptides [1]: 1 peptides
# of peptides [2]: 1 peptides
# of peptides [3]: 1 peptides
# of peptides [4]: 1 peptides
# of peptides [5]: 2 peptides
# of peptides [6]: 1 peptides
# of peptides [7]: 1 peptides
# of peptides [8]: 2 peptides
# of peptides [9]: 1 peptides
# of peptides [10]: 2 peptides
# of peptides [11]: 31 peptides

— patent publication US20100015126A1, “Methods of Binding of Cross-Beta Structures By Chaperones” (priority 2006, published 2010)
